Test results reported in patent publication US20050266009A1.

Legend:
Test in all cases: ELISA on coated peptide
[1] = target: T1, CCR5 (residues 1-18) derived peptide sulfated at 1st tyrosine position
T1 sequence (peptide, sulfated at 1st tyrosine position): MDYQVSSPIYDINYYTSE

[2] = target: T2, CCR5 (residues 1-18) derived peptide sulfated at 2nd tyrosine position
T2 sequence (peptide, sulfated at 2nd tyrosine position): MDYQVSSPIYDINYYTSE

[3] = target: T3, CCR5 (residues 1-18) derived peptide sulfated at 3rd tyrosine position
T3 sequence (peptide, sulfated at 3rd tyrosine position): MDYQVSSPIYDINYYTSE

[4] = target: T4, CCR5 (residues 1-18) derived peptide, non-sulfated
T4 sequence (peptide): MDYQVSSPIYDINYYTSE

[5] = target: T5, GPIb (residues 268-285) derived peptide sulfated at 1st tyrosine position
T5 sequence (peptide, sulfated at 1st tyrosine position): GDEGDTDLYDYYPEEDTE

[6] = target: T6, GPIb (residues 268-285) derived peptide sulfated at 3rd tyrosine position
T6 sequence (peptide, sulfated at 3rd tyrosine position): GDEGDTDLYDYYPEEDTE

[7] = target: T7, GPIb (residues 268-285) derived peptide, non-sulfated
T7 sequence (peptide): GDEGDTDLYDYYPEEDTE

[8] = target: T8, PSGL-1 (residues 42-58) derived peptide sulfated at 1st tyrosine position
T8 sequence (peptide, sulfated at 1st tyrosine position): QATEYEYLDYDFLPETE

[9] = target: T9, PSGL-1 (residues 42-58) derived peptide sulfated at 2nd tyrosine position
T9 sequence (peptide, sulfated at 2nd tyrosine position): QATEYEYLDYDFLPETE

[10] = target: T10, PSGL-1 (residues 42-58) derived peptide sulfated at 3rd tyrosine position
T10 sequence (peptide, sulfated at 3rd tyrosine position): QATEYEYLDYDFLPETE

[11] = target: T11, PSGL-1 (residues 42-58) derived peptide, non-sulfated
T11 sequence (peptide): QATEYEYLDYDFLPETE

Measured: ELISA reading at 450 nm

N06 scFv (negative control)
0.07: [5] | [6] | [7]
0.06: [1] | [2] | [3] | [4] | [8] | [9] | [10] | [11]
